From article PMC12009414

Assays:
[1] = biological target: T1, Polθ-hel WT (DNA polymerase theta helicase domain) (human, UniProt O75417 1-894); assay: EMSA
[2] = biological target: T1, Polθ-hel WT (DNA polymerase theta …); assay: fluorescence anisotropy
[3] = biological target: T1, Polθ-hel WT (DNA polymerase theta …); assay: cryo-EM structure

T1 sequence (O75417 1-894): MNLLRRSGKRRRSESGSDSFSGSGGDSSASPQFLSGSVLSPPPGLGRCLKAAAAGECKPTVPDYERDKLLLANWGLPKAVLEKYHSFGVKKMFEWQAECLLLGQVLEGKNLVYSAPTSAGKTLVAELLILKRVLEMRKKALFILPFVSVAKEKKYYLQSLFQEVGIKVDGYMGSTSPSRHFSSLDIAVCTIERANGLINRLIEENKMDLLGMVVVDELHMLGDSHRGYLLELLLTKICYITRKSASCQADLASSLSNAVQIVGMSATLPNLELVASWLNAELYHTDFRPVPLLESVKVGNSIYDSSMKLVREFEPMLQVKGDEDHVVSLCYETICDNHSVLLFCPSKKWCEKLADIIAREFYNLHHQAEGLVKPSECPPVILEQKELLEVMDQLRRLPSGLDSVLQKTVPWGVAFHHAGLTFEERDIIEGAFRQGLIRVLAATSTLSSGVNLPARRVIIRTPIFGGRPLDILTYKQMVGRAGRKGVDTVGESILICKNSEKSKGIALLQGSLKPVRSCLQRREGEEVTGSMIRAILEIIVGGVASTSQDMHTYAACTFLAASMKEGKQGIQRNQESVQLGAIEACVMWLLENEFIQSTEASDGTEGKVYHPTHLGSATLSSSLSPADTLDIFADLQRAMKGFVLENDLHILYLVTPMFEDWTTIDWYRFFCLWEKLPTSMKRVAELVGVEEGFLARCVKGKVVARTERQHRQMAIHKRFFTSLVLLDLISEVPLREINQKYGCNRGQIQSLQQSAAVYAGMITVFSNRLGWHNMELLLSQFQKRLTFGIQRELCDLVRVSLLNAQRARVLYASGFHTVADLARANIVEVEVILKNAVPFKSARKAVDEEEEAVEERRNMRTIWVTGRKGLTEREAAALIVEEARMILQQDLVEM

Binder | binding result [1] | binding result [2] | other results
15-nt poly(T) without MH (unlabeled) (dsDNA) DNA 1: CCAACCGACCACACCCACCACCCTACCGCCTTTTTTTTTTTTTTT DNA 2: GGCGGTAGGGTGGTGGGTGTGGTCGGTTGG | binds |  | 
FAM-15T no MH (dsDNA) DNA 1: CCAACCGACCACACCCACCACCCTACCGCCTTTTTTTTTTTTTTTTT DNA 2: GGCGGTAGGGTGGTGGGTGTGGTCGGTTGG |  | binds | 
FAM-9T + MH (dsDNA) DNA 1: CCAACCGACCACACCCACCACCCTACCGCCTTTTTTTTTCCCGGG DNA 2: GGCGGTAGGGTGGTGGGTGTGGTCGGTTGG |  | binds | 
9-nt poly(T) with MH (unlabeled) (dsDNA) DNA 1: CCAACCGACCACACCCACCACCCTACCGCCTTTTTTTTTCCCGGG DNA 2: GGCGGTAGGGTGGTGGGTGTGGTCGGTTGG | binds |  | 
FAM-11T + MH (dsDNA) DNA 1: CCAACCGACCACACCCACCACCCTACCGCCTTTTTTTTTTTCCCGGG DNA 2: GGCGGTAGGGTGGTGGGTGTGGTCGGTTGG |  | binds | 
11-nt poly(T) with MH (unlabeled) (dsDNA) DNA 1: CCAACCGACCACACCCACCACCCTACCGCCTTTTTTTTTTTCCCGGG DNA 2: GGCGGTAGGGTGGTGGGTGTGGTCGGTTGG |  |  | binding result [3]: binds
